Values quoted from earlier work, collected in PMC13371949 (Journal of peptide science : an official publication of the …, 2025).

Columns and labels:
[1] = previous work

glucagon [glucagon control]
isoelectric point: near neutral | solubility at pH 7 (pH 7): limited solubility | time to fibril formation in solution [1]: ~ 11 hours
